Laboratory results reported in the supplement of paper PMC9170038.

Tested on: MS2 coat protein
Assay: apparent KD of MS2 coat protein; higher = weaker reporter binding
Conditions: Eterna round: R107
Procedure: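 RNA-MaP round R107: designed RNA switches with theophylline, tryptophan, arginine or FMN aptamers are transcribed on-chip within common flanks. They are titrated with SNAP-549-labelled MS2 coat protein in RNA-MaP buffer (100 mM Tris pH 7.5, 80 mM KCl, 4 mM MgCl2), without ligand or with the indicated ligand. Median apparent KD per design.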

[1] = input ligand: theophylline 20 uM
[2] = input ligand: theophylline 2 mM
[3] = input ligand: tryptophan 2.4 mM

Sequence | apparent KD of MS2 coat protein (input ligand: arginine 13.2 mM) | apparent KD of MS2 coat protein (input ligand: none) | apparent KD of MS2 coat protein [1] | apparent KD of MS2 coat protein [2] | apparent KD of MS2 coat protein [3]
AAGGUGAUCCCAGAUACCAGCUUAACAUGAGGAUCACCCAUGUAACGGACGAAAGUCCGGAGCCCUUGGCAGCUGGGUUGCCAAG [SSTheo B #14] | 102 nM | 266 nM | 305 nM | 141 nM | 90.9 nM
AAUAACAUGAGGAUCACCCAUGUAAAAGAUACCAGAGUGAUGAUCCUCCCUUGGCAGCUUAAAACGCUAUUGGAAACAAUAGCGA [Mat - Same State Theophlline A - Mod of Eli - D5] | 48.8 nM |  | 179 nM |  | 74 nM
AAUAACAUGAGGAUCACCCAUGUAAAAGAUACCAGAUGCAUGAUGAUCCCUUGGCAGCUUAAACGCGAUUGGAAACAAUCGCGAA [Mat - Same State Theophlline A - Mod of Eli - D11] | 37.1 nM |  | 40 nM |  | 38.3 nM
AAUAACAUGAGGAUCACCCAUGUAACCGAAGGAGCGGCAAUAAAGCCAGGUAGGUCGCGGAAUAACAUGAGGAUCACCCAUGUAA [Exclusion Arginine A] | 55.5 nM | 138 nM | 112 nM | 125 nM | 94.7 nM
AAUAAUAAGGCGGCCGCCACUAAACAUGAGGAUCACCCAUGUCUCGAGGGCUUGCGUUUGGGAAGUAGGACCGGGCCAAUAAUAA [Exclusion - Tryptophan B (Freestyle 6)] | 12.6 nM | 17.9 nM | 18.8 nM | 20.4 nM | 16.4 nM
AAUAAUAUCCUCAUGUGAGUCGUACCAUAACGAGGACCGGUACGGCCGCCACUCGAACAUGAGGAUCACCCAUGUAGGUAUGAUA [M'-T'-T-MS2-T'' - Design 7] | 50.6 nM |  | 120 nM | 345 nM | 
AAUACAGUGUCGGCCGCCACUGAAACAUGACAUGAGACAUGAGGAUCACCCAUGUACAUAAUAAACAGGACCGGGACCCAUGUAU [Same State Tryptophan B] | 28.9 nM |  | 42.4 nM | 42.5 nM | 
AAUAGACAUGAGGAUCACCCAUGUAUGGAAGGAGCGGUGAAUAAACCAGGUAGGUCGCCAGUGUGAGGGUCAUCUAUGUAAUAAA [#18 Exclusion - Arginine A] | 37.6 nM | 49 nM | 63.3 nM | 62.1 nM | 46.9 nM
AAUAGUCCUCGACAUGAGGAUCACCCAUGUCGAGGACCGGUACGGCCGCCACUCGACAUGAGGAUCACCCAUGUUGAGUGAUAAA [prototype 1] | 7.58 nM |  | 8.26 nM | 7.82 nM | 
AAUAGUCCUCGACAUGGGUAUCACCCAUGUCGAGGACCGGUACGGCCGCCACUCGACAUGAGGAUCACCCAUGUUGAGUGAUAAA [prototype 1.1] | 12.2 nM | 9.57 nM | 13.7 nM | 9.31 nM | 9.09 nM
AAUAUAAGUGUAAUUUUAUGUAUCUCUGAUACCAGACCCUCAUGUGUCCCUUGGCAGCAGUAACAUGAGGAUCACCCAUGUAAAA [JR_Nu_SSTheophyA_Sub023] | 30.7 nM |  | 103 nM |  | 86 nM
AAUCUGUCGGGUGAUACCAGCCUCGGCGCAUCUCGCACCGAACAUGAGGAUCACCCAUGUGGCCCUUGGCAGCACAUGACAAAUC [Ermateus] | 113 nM |  | 767 nM |  | 654 nM
AAUGGCGUUGGUGAGGCGGUUAAUGGCGAUACCAGCGUGGAAACACGCCCUUGGCAGCGCCAAAACAUGAGGAUCACCCAUGUUA [Olomouc] | 15.8 nM |  | 23.5 nM |  | 16.9 nM
AAUGUAUGGCACAUGAGGAUCACCCAUGUGCGAGGACCGGUACGGCCGCCACUCGGUCCUGGGAUCUUACCACUAUACAUUAAUG [XTryp A #21] | 10.2 nM |  | 14.8 nM | 11.3 nM | 
AAUUAGAUGUCGGCCGCCACUGAUGUGUCUGUUGCGUCCAGUGUGUACAUGAGGAUCACCCAUGUCAGGACCGGGACUUUAAAUU [Sodigeedar] | 12.4 nM |  | 13.5 nM | 12.3 nM | 
AAUUCAGGGUCGGCCGCCACUGGUAUGGCGAGUCCUCGAACUUACAUGAGGAUCACCCAUGUGAACAGGACCGGGACAGCAUGGG [Exclusion Tryptophan B GF 22] | 57.8 nM | 233 nM | 256 nM | 239 nM | 214 nM
